# Changes are numbered by the printed parent chain. Like-named read-outs stand apart in the source and are kept apart here.
# T1: human TL1A (HuTL1A) (human, UniProt O95150 57-251, limits assumed, biotin-labelled in some assays (site not stated))
# T1 construct: Expressed in EXPI-293 cells and purified by Ni-NTA (His-tag); Described as a trimeric antigen; also called TL1A antigen; WT
# T1 sequence: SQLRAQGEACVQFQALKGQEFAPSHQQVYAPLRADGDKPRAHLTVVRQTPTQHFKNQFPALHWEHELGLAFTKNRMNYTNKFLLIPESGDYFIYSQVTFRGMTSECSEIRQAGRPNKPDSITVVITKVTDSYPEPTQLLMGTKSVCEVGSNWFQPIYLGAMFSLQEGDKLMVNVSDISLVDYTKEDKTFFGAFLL
# T2: HuTL1A mutant E120A (mutant number 4138) (human, UniProt O95150 57-251, limits assumed)
# T2 construct: whole entry named
# T2 chain: T1 sequence with E64A
# T3: HuTL1A mutant K240A (mutant number 4136) (human, UniProt O95150 57-251, limits assumed)
# T3 construct: whole entry named
# T3 chain: T1 sequence with K184A
# T4: HuTL1A mutant V102A (mutant number 4139) (human, UniProt O95150 57-251, limits assumed)
# T4 construct: whole entry named
# T4 chain: T1 sequence with V46A
# T5: HuTL1A mutant S234A (mutant number 4133) (human, UniProt O95150 57-251, limits assumed)
# T5 construct: whole entry named
# T5 chain: T1 sequence with S178A
# T6: HuTL1A mutant T105A (mutant number 4140) (human, UniProt O95150 57-251, limits assumed)
# T6 construct: whole entry named
# T6 chain: T1 sequence with T49A
# T7: HuTL1A mutant T239A (mutant number 4135) (human, UniProt O95150 57-251, limits assumed)
# T7 construct: whole entry named
# T7 chain: T1 sequence with T183A
# T8: HuTL1A mutant H118A (mutant number 4137) (human, UniProt O95150 57-251, limits assumed)
# T8 construct: whole entry named
# T8 chain: T1 sequence with H62A
# T9: HuTL1A mutant Y238A (mutant number 4134) (human, UniProt O95150 57-251, limits assumed)
# T9 construct: whole entry named
# T9 chain: T1 sequence with Y182A
# B1: single-arm antibody M701-3973 (antibody, human IgG1, kappa, L234A L235A)
# heavy: ELQLQESGPGLVKPSETLSLTCAVSGVSFSDYHWAWIRQPPGKGLEWIGDINHRGHTNYNPSLKSRVTVSIDTSKNQFSLKLSSVTAADTAVYFCARDFPNFIFDFWGQGTLVTVSSASTKGPSVFPLAPSSKSTSGGTAALGCLVKDYFPEPVTVSWNSGALTSGVHTFPAVLQSSGLYSLSSVVTVPSSSLGTQTYICNVNHKPSNTKVDKKVEPKSCDKTHTCPPCPAPEAAGGPSVFLFPPKPKDTLMISRTPEVTCVVVDVSHEDPEVKFNWYVDGVEVHNAKTKPREEQYNSTYRVVSVLTVLHQDWLNGKEYKCKVSNKALGAPIEKTISKAKGQPREPQVYTLPPCREEMTKNQVSLWCLVKGFYPSDIAVEWESNGQPENNYKTTPPVLDSDGSFFLYSKLTVDKSRWQQGNVFSCSVMHEALHNHYTQKSLSLSPG
# light: not shown
# chain: DKTHTCPPCPAPEAAGGPSVFLFPPKPKDTLMISRTPEVTCVVVDVSHEDPEVKFNWYVDGVEVHNAKTKPREEQYNSTYRVVSVLTVLHQDWLNGKEYKCKVSNKALGAPIEKTISKAKGQPREPQVCTLPPSREEMTKNQVSLSCAVKGFYPSDIAVEWESNGQPENNYKTTPPVLDSDGSFFLVSKLTVDKSRWQQGNVFSCSVMHEALHNHYTQKSLSLSPG
# Experiments:
# [1] = molecular target: T1, human TL1A (HuTL1A); experiment: BLI (Gator), biotin-HuTL1A on SA probe, pH 7.4; BLI (Gator), pH 7.4
# Procedure: The binding kinetics between monoclonal antibodies and antigens was measured using Gator, a label-free biomolecule interaction analyzer based on the principle of biolayer interference (BLI). […] Then a serial dilutions of single-arm M701 antibodies and control antibodies were added. The antibodies interacted with the antigen captured by the SA probe, and the interaction was analyzed by detecting the signal change of the reflection interference spectrum of the probe surface, and finally the binding kinetics constants of the antibodies were calculated. The kinetic constants of antigen and antibodies were measured at pH 7.4 and 5.6 in sodium dihydrogen phosphate-citrate buffer.
# [2] = molecular target: T1, human TL1A (HuTL1A); experiment: ELISA: biotin-HuTL1A on streptavidin plate, antibody diluted at pH 7.4, HRP-anti-human Fc, OD450
# Procedure: (§1) Corresponding antibodies were added to specific wells, and the antibodies were diluted with sodium dihydrogen phosphate-citrate buffer at pH 7.4, pH 6.0, pH 5.8, or pH 5.6. Binding assay was carried out at room temperature for 30 minutes. After the incubation, the excess antibodies were removed and the wells were washed by PBST. HRP-anti-Human Fc (Sino Biological) was then added into each well and incubated for 30 minutes to detect the bound antibody. The substrate TMB was finally added to develop color for 5-10 minutes. The color development reaction was terminated with 1M sulfuric acid. OD450 nm was recorded on a microplate reader, and the data were processed and fitted by 4 parameter logistic regression.
# [3] = molecular target: T2, HuTL1A mutant E120A (mutant number 4138); experiment: BLI (Gator) on antigen mutant E120A
# [4] = molecular target: T1, human TL1A (HuTL1A); experiment: ELISA: biotin-HuTL1A on streptavidin plate, antibody diluted at pH 7.4, HRP-anti-human Fc, OD450; remark: listed apart in the source
# Procedure: as §1
# [5] = molecular target: T1, human TL1A (HuTL1A); experiment: BLI (Gator) on WT antigen (3907)
# [6] = molecular target: T3, HuTL1A mutant K240A (mutant number 4136); experiment: BLI (Gator) on antigen mutant K240A
# [7] = molecular target: T4, HuTL1A mutant V102A (mutant number 4139); experiment: BLI (Gator) on antigen mutant V102A
# [8] = molecular target: T5, HuTL1A mutant S234A (mutant number 4133); experiment: BLI (Gator) on antigen mutant S234A
# [9] = molecular target: T6, HuTL1A mutant T105A (mutant number 4140); experiment: BLI (Gator) on antigen mutant T105A
# [10] = molecular target: T7, HuTL1A mutant T239A (mutant number 4135); experiment: BLI (Gator) on antigen mutant T239A
# [11] = molecular target: T1, human TL1A (HuTL1A); experiment: BLI (Gator), His-tagged TL1A on anti-His probe, pH 7.4
# Procedure: (§2) Then a serial dilutions of single-arm M701 antibodies and control antibodies were added.
# [12] = molecular target: T10, cynomolgus monkey/rhesus monkey TL1A (cynomolgus monkey/rhesus monkey); experiment: as above
# T10 construct: also called Cynomolgus/rhesus monkey TL1A
# Procedure: as §2
# [13] = molecular target: T8, HuTL1A mutant H118A (mutant number 4137); experiment: BLI (Gator) on antigen mutant H118A
# [14] = molecular target: T9, HuTL1A mutant Y238A (mutant number 4134); experiment: BLI (Gator) on antigen mutant Y238A
binder,measurement,setting,value
B1,Kd,[1],5.62 nM
same,koff,[1],0.00214 s⁻¹
same,kon,[1],381000 M⁻¹ s⁻¹
same,EC50 (read off the curve),[2],~0.6 nM
same,Kd,[3],17.3 nM
same,EC50 (read off the curve),[4],~0.6 nM
same,Kd,[5],8.39 nM
same,Kd,[6],8.15 nM
same,Kd,[7],5850 nM
same,Kd,[8],7.82 nM
same,Kd,[9],6.65 nM
same,Kd,[10],11.6 nM
same,Kd,[11],5.92 nM
same,koff,[11],0.00353 s⁻¹
same,kon,[11],596000 M⁻¹ s⁻¹
same,Kd,[12],6.09 nM
same,koff,[12],0.00375 s⁻¹
same,kon,[12],616000 M⁻¹ s⁻¹
same,Kd,[13],7.73 nM
same,Kd,[14],12100 nM

# — patent publication US20250313644A1 (FUTUREGEN BIOPHARMACEUTICAL BEIJING, published 2025)
